Source: patent publication US20240197828A1 (FEINSTEIN INSTITUTES FOR MEDICAL RESEARCH, published 2024)
Changes are numbered by the printed parent chain.

B1: MFG-E8-derived oligopeptide 3 (MOP3) (peptide)
peptide: RGDSSSYKTWNLRAFGWY
notes: Synthetic 18-residue chimeric peptide: RGD followed by 15 residues of the mouse MFG-E8 discoidin domain 2
B2: recombinant murine (rm) CIRP (ligand, mouse, UniProt P60824 1-172, looked up)
chain: MASDEGKLFVGGLSFDTNEQALEQVFSKYGQISEVVVVKDRETQRSRGFGFVTFENIDDAKDAMMAMNGKSVDGRQIRVDQAGKSSDNRSRGYRGGSAGGRGFFRGGRSRGRGFSRGGGDRGYGGGRFESRSGGYGGSRDYYASRSQGGSYGYRSSGGSYRDSYDSYATHNE
notes: For SPR it was bought (Cat # CSB-EP613483He0); For the cell assays it was made in the lab and, in the uptake experiments, labelled with FITC; also called eCIRP
B3: recombinant human CIRP (rhCIRP) (ligand, UniProt Q14011 1-172, looked up)
chain: B2 chain with A21S, S109G, G126N, A143S, G148S, S150G, G152S, Y153D
notes: The source of rhCIRP is not described in the methods

Key:
[1] = target: B2; experiment: SPR (Biacore/OpenSPR); rmCIRP as analyte at 0.5-2 µM; 1:1 fit; Example 2, Biacore
Protocol: (§1) To examine the direct interaction between rmCIRP and rmMFG-E8, surface plasmon resonance (SPR), OpenSPR (Nicoya), was performed between rmCIRP and rmMFG-E8. rmCIRP was immobilized on carboxyl sensor and rmMFG-E8 was injected as an analyte in concentrations of 15.7 nM to 250 nM. Binding reactions were performed in DPBS, with Calcium and Magnesium, 0.05% P20, 1% BSA, and pH 7.4. In parallel experiments, binding of MOP3 to rmCIRP (analyte) was performed with concentrations of 0.5 μm to 2 μM, and binding of MOP3 to αᵥβ₃-integrin (analyte) was performed in concentrations of 31.25 nM to 125 nM. All binding reactions were performed in PBS 0.05% P20, pH7.4. Briefly, the carboxyl sensor was first cleaned by injection 10 mM HCL 150 μl, followed by injection of 150 μl of the mixture of 1 aliquot of N-ethyl-N′-[3-[…]]-carbodiimide (EDC) and 1 aliquot of N-hydroxysuccinimide (NHS) to activate the sensor surface. An aliquot of 200 μl of 50 μg/ml of the ligand diluted in 10 mM sodium acetate (pH 5.5) was injected at 20 μl/minutes into flow cell-channel-2 of the sensor for immobilization. Next, 150 μl of 1 M […] (pH 8.5) was injected to deactivate the remaining active sites on channel 1&2. […] To evaluate binding, the analyte was injected into flow cell-1 and flow cell-2 and increasing concentrations and real-time interaction data were analyzed by TraceDrawer (Nicoya). […]

[2] = target: B2; experiment: SPR (Example 1); Example 1; paragraph 73 gives a separate value of 3.1×10^-7 M
[3] = target: T1, αvβ3-integrin (recombinant, R&D Systems Cat #7889-AV-050); experiment: SPR (Biacore/OpenSPR); αvβ3-integrin as analyte at 31.25-125 nM; 1:1 fit
T1 construct: Used as the analyte in SPR over immobilised MOP3; also called αvβ3-integrin receptor; auß3-integrin
Protocol: as §1

[4] = target: T2, recombinant murine MFG-E8 (rmMFG-E8) (mouse, UniProt P21956 23-463); experiment: SPR (Biacore/OpenSPR); rmCIRP immobilised, rmMFG-E8 as analyte at 15.7-250 nM; 1:1 fit; mouse proteins
T2 construct: For SPR it was bought from R&D Systems (Cat #2767-MF-050); For the cell assays it was made in the lab; also called milk fat globule-epidermal growth factor-factor VIII; AlexaFluor568-rmMFG-E8
T2 sequence: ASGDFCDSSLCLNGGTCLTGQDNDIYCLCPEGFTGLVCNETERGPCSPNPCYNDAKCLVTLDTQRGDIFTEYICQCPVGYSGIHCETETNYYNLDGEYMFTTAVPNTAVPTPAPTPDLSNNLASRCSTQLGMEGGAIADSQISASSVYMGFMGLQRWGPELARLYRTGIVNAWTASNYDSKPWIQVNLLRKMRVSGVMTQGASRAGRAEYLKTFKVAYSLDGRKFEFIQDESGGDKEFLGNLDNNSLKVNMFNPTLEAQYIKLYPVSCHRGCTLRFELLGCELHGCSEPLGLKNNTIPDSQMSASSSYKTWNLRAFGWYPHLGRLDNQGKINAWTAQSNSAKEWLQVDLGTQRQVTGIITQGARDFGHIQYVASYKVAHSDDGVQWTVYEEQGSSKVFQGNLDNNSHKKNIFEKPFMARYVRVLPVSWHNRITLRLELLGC
Protocol: as §1

[5] = target: T3, recombinant human MFG-E8 (rhMFG-E8) (human, UniProt Q08431 24-387, limits assumed); experiment: SPR (Biacore); human proteins
T3 sequence (looked up): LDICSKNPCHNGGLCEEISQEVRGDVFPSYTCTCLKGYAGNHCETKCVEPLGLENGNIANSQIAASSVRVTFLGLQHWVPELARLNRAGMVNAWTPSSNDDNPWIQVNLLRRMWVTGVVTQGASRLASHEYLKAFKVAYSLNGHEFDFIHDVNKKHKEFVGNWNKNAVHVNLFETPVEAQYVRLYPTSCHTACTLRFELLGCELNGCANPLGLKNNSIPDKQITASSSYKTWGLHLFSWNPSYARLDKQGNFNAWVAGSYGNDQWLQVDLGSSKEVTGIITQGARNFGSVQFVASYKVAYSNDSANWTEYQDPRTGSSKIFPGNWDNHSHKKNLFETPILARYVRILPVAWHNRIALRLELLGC

T1 sequence (P43406 31-988, chain 1 of 2): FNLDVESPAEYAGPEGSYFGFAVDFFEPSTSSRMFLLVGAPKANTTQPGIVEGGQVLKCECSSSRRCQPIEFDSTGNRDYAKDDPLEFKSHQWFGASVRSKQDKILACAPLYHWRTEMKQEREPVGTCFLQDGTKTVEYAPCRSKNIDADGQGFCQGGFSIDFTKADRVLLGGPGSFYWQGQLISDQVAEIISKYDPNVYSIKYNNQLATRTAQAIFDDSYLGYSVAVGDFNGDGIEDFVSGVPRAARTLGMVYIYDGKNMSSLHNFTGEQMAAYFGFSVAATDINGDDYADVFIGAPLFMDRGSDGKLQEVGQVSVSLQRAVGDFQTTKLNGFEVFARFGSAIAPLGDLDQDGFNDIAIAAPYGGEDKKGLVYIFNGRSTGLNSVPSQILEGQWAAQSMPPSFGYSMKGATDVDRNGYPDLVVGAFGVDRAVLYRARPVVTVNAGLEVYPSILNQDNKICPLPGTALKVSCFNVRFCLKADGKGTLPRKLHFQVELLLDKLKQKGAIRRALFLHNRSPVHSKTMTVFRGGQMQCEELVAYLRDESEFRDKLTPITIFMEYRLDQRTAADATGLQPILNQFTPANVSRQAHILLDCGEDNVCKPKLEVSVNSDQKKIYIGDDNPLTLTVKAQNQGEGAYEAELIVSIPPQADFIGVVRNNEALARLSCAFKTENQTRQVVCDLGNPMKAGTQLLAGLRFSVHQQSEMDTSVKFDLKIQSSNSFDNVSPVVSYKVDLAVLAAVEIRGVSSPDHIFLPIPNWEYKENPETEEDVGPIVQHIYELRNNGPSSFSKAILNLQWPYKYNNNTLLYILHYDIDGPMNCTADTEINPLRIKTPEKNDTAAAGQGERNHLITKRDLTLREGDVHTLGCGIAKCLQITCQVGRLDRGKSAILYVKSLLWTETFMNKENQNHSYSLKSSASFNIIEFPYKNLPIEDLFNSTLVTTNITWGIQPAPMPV
T1 sequence (O54890 26-717, chain 2 of 2, further chain): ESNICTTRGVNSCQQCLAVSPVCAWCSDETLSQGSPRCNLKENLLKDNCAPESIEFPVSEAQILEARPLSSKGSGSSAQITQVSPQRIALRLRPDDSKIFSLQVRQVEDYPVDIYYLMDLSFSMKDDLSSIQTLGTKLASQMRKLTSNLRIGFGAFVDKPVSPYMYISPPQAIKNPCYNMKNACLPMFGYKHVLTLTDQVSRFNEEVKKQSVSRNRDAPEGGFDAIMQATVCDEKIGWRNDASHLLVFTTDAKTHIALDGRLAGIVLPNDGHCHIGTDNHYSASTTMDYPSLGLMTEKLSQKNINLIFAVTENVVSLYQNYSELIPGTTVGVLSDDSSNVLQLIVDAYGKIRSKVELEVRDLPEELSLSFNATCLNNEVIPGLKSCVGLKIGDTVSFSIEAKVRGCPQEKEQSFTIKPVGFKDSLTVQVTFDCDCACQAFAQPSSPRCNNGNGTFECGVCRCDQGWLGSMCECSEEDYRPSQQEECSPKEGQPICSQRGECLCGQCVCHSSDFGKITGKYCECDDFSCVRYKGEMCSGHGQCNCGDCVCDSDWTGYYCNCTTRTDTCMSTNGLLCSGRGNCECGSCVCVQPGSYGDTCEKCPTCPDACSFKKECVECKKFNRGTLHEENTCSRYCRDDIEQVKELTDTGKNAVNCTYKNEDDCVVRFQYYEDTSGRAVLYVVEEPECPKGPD

B1
Kd [1]: 310 nM
Kd [2]: 13 nM
Kd [3]: 776 nM

B2
Kd [4]: 200 nM

B3
Kd [5]: 29 nM
